Measurements as given in patent US20220281976A1 (Alector, published 2022).

T1: mouse CD33 Fc fusion protein (mouse, UniProt Q63994 18-240, limits assumed)
T1 construct: also called mCD33-Fc
T1 sequence: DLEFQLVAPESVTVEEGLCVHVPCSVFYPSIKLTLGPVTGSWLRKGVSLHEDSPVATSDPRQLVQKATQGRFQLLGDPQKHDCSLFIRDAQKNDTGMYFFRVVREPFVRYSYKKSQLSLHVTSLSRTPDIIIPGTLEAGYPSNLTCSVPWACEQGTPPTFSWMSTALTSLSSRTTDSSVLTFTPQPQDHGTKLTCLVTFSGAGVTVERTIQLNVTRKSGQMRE


Legend:
human CD33 [1] = molecular target: T2, human CD33 (human, UniProt P20138 18-364); test: cell-based or functional assay
T2 sequence (P20138 18-364): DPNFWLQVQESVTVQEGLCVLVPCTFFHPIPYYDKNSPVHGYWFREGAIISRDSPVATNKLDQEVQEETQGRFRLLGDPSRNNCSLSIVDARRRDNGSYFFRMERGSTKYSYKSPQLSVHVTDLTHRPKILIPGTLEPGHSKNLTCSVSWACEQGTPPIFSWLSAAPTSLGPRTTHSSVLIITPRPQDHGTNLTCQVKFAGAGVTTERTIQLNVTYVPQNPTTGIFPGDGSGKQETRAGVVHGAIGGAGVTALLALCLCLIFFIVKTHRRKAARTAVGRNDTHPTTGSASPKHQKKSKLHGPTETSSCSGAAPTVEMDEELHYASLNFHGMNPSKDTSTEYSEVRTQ

[2] = molecular target: T1, mouse CD33 Fc fusion protein; test: ForteBio BLI or MSD-SET
human CD33 [3] = molecular target: T2, human CD33; test: flow cytometry, human primary T cells;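 also: binding of anti-CD33 antibodies at 10 ug/ml to human primary T cells, 1 h on ice, detected with PE-labelled secondary antibody, read as flow cytometry MFI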
Method: Initial characterization of CD33 antibodies involved determining their ability to bind CD33 expressed on a CHO cell line, on human primary monocytes, human primary macrophages, human primary dendritic cells, and on human primary T cells. Cells were harvested, plated at 10⁶/ml in a 96 well plate, and incubated in 100 ul PBS containing 2% FBS, 2 mM EDTA and 10 ug/ml Mab and Fc blocking reagent for 1 hour in ice. Cells were washed twice and incubated in 100 ul PBS containing 2% FBS, 2 mM EDTA and 5 ug/ml PE-conjugated secondary antibody for 30 minutes on ice. Cells were washed twice in cold PBS and analyze by flow cytometry on a BD FACS Canto. Data analysis and calculation of MFI values was performed with FlowJo (TreeStar) software version 10.0.7.

human CD33 [4] = molecular target: T2, human CD33; test: flow cytometry, human primary monocytes; set-up: reference not given here;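 also: binding of anti-CD33 antibodies at 10 ug/ml to human primary monocytes, 1 h on ice, detected by PE-labelled secondary antibody, flow cytometry readout as mean fluorescence intensity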
human CD33 [5] = molecular target: T2, human CD33; test: flow cytometry, human primary macrophages;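 also: binding of CD33 antibodies at 10 µg/ml to human primary macrophages, 1 h on ice, detected with PE-labelled secondary antibody by flow cytometry, reported as MFI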
human CD33 [6] = molecular target: T2, human CD33; test: flow cytometry, human primary dendritic cells;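 also: binding of anti-CD33 antibodies (10 ug/ml, 1 h on ice) to human primary dendritic cells, detected with a PE-labelled secondary antibody, reported as flow cytometry MFI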
[7] = molecular target: T3, human monomeric His tagged CD33 protein (human, UniProt P20138 18-259); test: ForteBio BLI or MSD-SET, IgG, monomeric antigen;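 also: BLI: antibodies captured on AHQ sensors, 100 nM antigen association 5 min, dissociation 5 min, 1:1 fit. MSD-SET: antigen fixed at 50 pM, antibody titrated, quadratic fit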
T3 construct: also called hCD33-His
T3 sequence (P20138 18-259 limits assumed): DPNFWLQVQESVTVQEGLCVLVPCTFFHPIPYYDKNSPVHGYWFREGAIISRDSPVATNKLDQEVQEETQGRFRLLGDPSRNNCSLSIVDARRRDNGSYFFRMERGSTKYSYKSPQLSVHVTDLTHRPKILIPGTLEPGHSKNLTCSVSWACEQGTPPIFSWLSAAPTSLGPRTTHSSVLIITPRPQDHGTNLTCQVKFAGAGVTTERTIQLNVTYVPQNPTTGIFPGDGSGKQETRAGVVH

[8] = molecular target: T4, human CD33 Fc fusion protein (human, UniProt P20138 18-259); test: RBC adhesion to plate-bound CD33-Fc; antibody 0.5 ug/ml;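 also: Plate-coated CD33-Fc preincubated 1 h with antibody, then red blood cells added for 1 h at room temperature, adherent cells lysed and quantified via peroxidase activity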
T4 construct: also called hCD33-Fc; human CD33/Fc chimera (R&D Systems)
T4 sequence (P20138 18-259 limits assumed): as above
Method: (§1) Briefly, 5 ug/ml CD33-Fc was coated overnight at RT in 96 well Immunolon plates, then washed with PBS, blocked for one hour with binding buffer (PBS containing %0.25 BSA 1 mM CaCl₂). CD33 antibodies (0.5 ug/ml or 1.0 ug/ml) or Fabs (25 ug/ml) were bound for one hour at RT with gentle rocking. After removal of unbound antibody, red blood cells were added to each well at a concentration of 3.0×10⁶ cells per ml and incubated at RT for one hour. Unbound RBCs were then carefully washed off 3× with PBS, and water was added to each well for hypotonic lysis of bound RBCs. The plate was transferred to −80° C. for 10 minutes, followed by 37° C. for 15 minutes. Bound RBCs were detected by peroxidase activity, followed by 2N sulfuric acid to stop the reaction.

[9] = molecular target: T4, human CD33 Fc fusion protein; test: RBC adhesion to plate-bound CD33-Fc; antibody 1.0 ug/ml;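 also: red blood cells adhering to plate-coated CD33-Fc after 1 h antibody pretreatment, then 1 h at room temperature, bound cells read as peroxidase activity after lysis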
Method: as §1

Binder | Percent CD33 Surface Expression, DC % CD33 (human CD33 [1]) [%] | Percent CD33 Surface Expression, Macrophage % CD33 (human CD33 [1]) [%] | Percent CD33 Surface Expression, Monocyte % CD33 (human CD33 [1]) [%] | binding result [2] | T cell MFI (human CD33 [3]) | Monocyte MFI (human CD33 [4]) | Macrophage MFI (human CD33 [5]) | DC MFI (human CD33 [6]) | Kd [7] [nM] | Percent RBC Binding to CD33 [8] [%] | Percent RBC Binding to CD33 [9] [%]
C-19 (antibody, V domains shown, human IgG1) VH: QLQLQESGPGLVKPSETLSLTCTVSGGSISSSSYAWGWIRQPPGKGLEWIGSIYYSGSTYYNPSLKSRVTISVDTSKNQFSLKLSSVTAADTAVYYCARVGYTRPYGMDVWGQGTTVTVSS VL: DIQMTQSPSSVSASVGDRVTITCRASQGISSWLAWYQQKPGKAPKLLIYAASSLQSGVPSRFSGSGSGTDFTLTISSLQPEDFATYYCQQINAHPTFGGGTKVEIK | 11.6 | 58.7 | 28.2 | no binding (tested: 100 nM) | 470 | 182 | 887 | 1700 | 1.82 | 19.5 | 14.3
C-35 (antibody, V domains shown, human IgG1) VH: QLQLQESGPGLVKPSETLSLTCTVSGGSISSSSYAWGWIRQPPGKGLEWIGNIYYSGSTYYNPSLKSRVTISVDTSKNQFSLKLSSVTAADTAVYYCARAGYRSPSGFDYWGQGTLVTVSS VL: DIQMTQSPSSVSASVGDRVTITCRASQGISSWLAWYQQKPGKAPKLLIYAASNLQSGVPSRFSGSGSGTDFTLTISSLQPEDFATYYCQQGNAHPTFGGGTKVEIK | 18.7 | 51.2 | 31.9 | no binding (tested: 100 nM) | 186 | 160 | 920 | 1320 | 4.26 | 16.6 | 7.18
C-36 (antibody, V domains shown, human IgG1) VH: EVQLVESGGGLVQPGGSLRLSCAASGFTFSSYWMSWVRQAPGKGLEWVANIKQDGSEKYYVDSVKGRFTISRDNAKNSLYLQMNSLRAEDTAVYYCARDGQYYPAYGMDVWGQGTTVTVSS VL: EIVMTQSPATLSVSPGERATLSCRASQSVSSNLAWYQQKPGQAPRLLIYGASTRATGIPARFSGSGSGTEFTLTISSLQSEDFAVYYCQQYFDLPTFGGGTKVEIK | 21.2 | 36.3 | 46.6 | no binding (tested: 100 nM) | 228 | 144 | 853 | 1160 | 2.35 | 13.4 | 16.1
C-13 (antibody, V domains shown, human IgG1) VH: EVQLVESGGGLVQPGGSLRLSCAASGFTFSSYWMSWVRQAPGKGLEWVANIKSDGSEKYYVDSVKGRFTISRDNAKNSLYLQMNSLRAEDTAVYYCARGPSYLASGAFDLWGRGTLVTVSS VL: EIVLTQSPATLSLSPGERATLSCRASQSVSSYLAWYQQKPGQAPRLLIYDASNRATGIPARFSGSGSGTDFTLTISSLEPEDFAVYYCQQAYVVPPRTFGGGTKVEIK | 21.8 | 63.1 | 48 | no binding (tested: 100 nM) | 205 | 181 | 838 | 1740 | 9.97 | 41.3 | 15.3

Second part, the binder after the results:

Percent CD33 Surface Expression, DC % CD33 (human CD33 [1]) [%] | Percent CD33 Surface Expression, Macrophage % CD33 (human CD33 [1]) [%] | Percent CD33 Surface Expression, Monocyte % CD33 (human CD33 [1]) [%] | binding result [2] | T cell MFI (human CD33 [3]) | Monocyte MFI (human CD33 [4]) | Macrophage MFI (human CD33 [5]) | DC MFI (human CD33 [6]) | Kd [7] [nM] | Percent RBC Binding to CD33 [8] [%] | Percent RBC Binding to CD33 [9] [%] | Binder
47.5 | 68.8 | 53.9 | no binding (tested: 100 nM) | 192 | 84 | 652 | 938 | 32.2 | 23 | 7.46 | C-70 (antibody, V domains shown, human IgG1) VH: QVQLVESGGGVVQPGRSLRLSCAASGFTFSTYGMHWVRQAPGKGLEWVAVIWYDGSNKYYADSVKGRFTISRDNSKNTLYLQMNSLRAEDTAVYYCARGQHGTSRVDFDYWGQGTLVTVSS VL: not shown
27.8 | 52.2 | 44.9 | no binding (tested: 100 nM) | 269 | 74 | 617 | 1130 | 12.7 | 21.2 | 6.65 | C-42 (antibody, V domains shown, human IgG1) VH: QLQLQESGPGLVKPSETLSLTCTVSGGSISSSSYYWGWIRQPPGKGLEWIGSIYYSGSTYYNPSLKSRVTISVDTSKNQFSLKLSSVTAADTAVYYCAREPIYRRGMDVWGQGTTVTVSS VL: EIVLTQSPATLSLSPGERATLSCRASQSVSSYLAWYQQKPGQAPRLLIYDASNRATGIPARFSGSGSGTDFTLTISSLEPEDFAVYYCQQFSNYPTFGGGTKVEIK
77.4 | – | 59.9 | no binding (tested: 100 nM) | 772 | 107 | 729 | 892 | 100 | 44 | 19.3 | C-66 (antibody, V domains shown, human IgG1) VH: QLQLQESGPGLVKPSETLSLTCTVSGGSISSSSYYWGWIRQPPGKGLEWIGSIYYSGSTYYNPSLKSRVTISVDTSKNQFSLKLSSVTAADTAVYYCAREVGYPYGMDVWGQGTTVTVSS VL: DIQLTQSPSSLSASVGDRVTITCQASQDISNFLNWYQQKPGKAPKLLIYDASNLETGVPSRFSGSGSGTDFTFTISSLQPEDIATYYCQQYSDLPTFGGGTKVEIK
22.9 | 55.9 | 24.9 | no binding (tested: 100 nM) | 210 | 94 | 573 | 1050 | 23.7 | 29.8 | 13.7 | C-73 (antibody, V domains shown, human IgG1) VH: QVQLVESGGGVVQPGRSLRLSCAASGFTFSSYGMHWVRQAPGKGLEWVAVIWYDGSNKYYADSVKGRFTISRDNSKNTLYLQMNSLRAEDTAVYYCARGTNAYGTPRDFDLWGRGTLVTVSS VL: DIQMTQSPSSLSASVGDRVTITCRASQSISSYLNWYQQKPGKAPKLLIYAASSLQSGVPSRFSGSGSGTDFTLTISSLQPEDFATYYCQQLSDTPITFGGGTKVEIK
79.6 | – | 87.8 | no binding (tested: 100 nM) | 80.6 | 646 | 409 | 70 | 59.3 | 98.7 | 108 | C-83 (antibody, V domains shown, human IgG1) VH: not shown VL: DIQLTQSPSSVSASVGDRVTITCRASQGISSWLAWYQQKPGKAPKLLIYAASSLQSGVPSRFSGSGSGTDFTLTISSLQPEDFATYYCQQAYALPPTFGGGTKVEIK
